Data reported in patent US10295490B2, “MEMS-based calorimeter, fabrication, and use thereof” (The Trustees Of Columbia University In the City of New York, priority 2014, dated 2019).

Legend:
[1] = Polymer MEMS DSC measurement of lysozyme unfolding (Example 6); format: physicochemical; conditions: 0.1 M Glycine-HCL buffer pH 2.5; scan 5 K/min; all concentrations except 1 mg/mL
Procedure: The sample solutions and buffer were degassed overnight in a vacuum chamber built in-house, metered with Micropipettes, and introduced by a syringe pump (New Era Pump Systems, Inc., NE-1000) before the DSC measurements.
Before DSC measurements, the baseline, i.e., the thermopile output voltage in the absence of a differential power input, during temperature scanning in the range of interest was recorded with both calorimetric channels filled with buffer solutions. After which, characterizations of biomolecules were performed with the calorimetric channels, respectively filled with a biological sample and a buffer solutions, and scanned in the same range with pre-specified rate. The temperature sensors were used to monitor the temperatures of calorimetric channels, while the device output was obtained in real time to compute the biomolecular thermal power.
The calibrated polymer MEMS DSC device was then exploited to characterize protein unfolding. […]
The thermopile differential voltage as a function of temperature, corrected by baseline subtraction, was measured at varying concentrations ranging from 1 to 20 mg/mL (FIG. 42). […] Furthermore, the differential heat capacity as a function of temperature and the calibrated device sensitivity can be calculated from the device voltage output by Equation 7. The sample heat capacity as a function of temperature was determined by: […]

[2] = cited from earlier work
[3] = MEMS AC-DSC measurement of lysozyme unfolding (Example 3); format: physicochemical; conditions: 10 and 20 mg/mL in 0.1 M Glycine-HCl pH 2.5, 5° C./min, modulation 1, 5 or 10 Hz
From the text: The microdevice was also placed in a thermal enclosure built in-house. […] The AC-DSC measurement was fully automated through a Lab VIEW program.
The MEMS AC-DSC device calibrated above was used to measure the thermal behavior of protein unfolding.
Meanwhile, the specific heat capacity (c) of the protein as a function of temperature can be computed from the thermopile voltage amplitude (FIG. 19).

[4] = MEMS DSC measurement of lysozyme unfolding (Example 2); format: physicochemical; conditions: 0.1 M Glycine-HCl buffer pH 2.5; 1 to 20 mg/mL; scan 25-75° C. at 5° C./min
Procedure: DSC measurements of biomolecules were performed using the calibrated microdevice, whose sample chamber and reference chamber were respectively filled with biological sample and buffer solutions, scanned in a range of temperature of interest. The temperature sensors were used to monitor the temperatures of calorimetric chambers while the device output was obtained in real time to compute the biomolecular thermal power. Before DSC measurements, the baseline in device output, i.e., the thermopile output voltage in the absence of a differential power input, during temperature scanning was measured with both calorimetric chambers filled with buffer solutions. […]
The thermopile output voltage as a function of temperature, corrected by baseline subtraction, was measured at varying protein concentrations ranging from 1 to 20 mg/mL (FIG. 10).
Despite the amplitude difference of device output at various protein concentrations, they all yielded consistent estimates of the thermodynamic properties associated with the protein unfolding process. In particular, the profile shape of c was generally not influenced by protein concentration, and ΔH was consistently determined to be approximately 450 kJ/mol with a corresponding melting temperature Tm of approximately 55° C.

lysozyme: targeted sample biomolecule, purchased from Sigma Aldrich (lyophilized powder, protein ≥90%), used for protein unfolding DSC
melting temperature Tm [1]: 54.71 °C | total enthalpy change per mole of lysozome (ΔH) [1]: 101 kcal/mol | Tm of lysozyme, published data [2]: 55-58.9 °C | ΔH of lysozyme unfolding, published data [2]: 90.1 to 105 kcal/mol | apparent melting temperature (Tm) [3]: 55-58 °C | melting temperature Tm [4]: approximately 55 °C | total change of molar enthalpy (ΔH) of lysozyme unfolding [4]: approximately 450 kJ/mol
